Assay results from US20080313749A1.

How the values were obtained:
[1] = target: … (SEQ ID NO:101), scaffold-bound CCR5-derived peptide 447; test: peptide microarray ELISA, 2D7 at 1 µg/ml
[2] = target: … (SEQ ID NO:102), scaffold-bound CCR5-derived peptide 443; test: peptide microarray ELISA, 2D7 at 1 µg/ml
[3] = target: … (SEQ ID NO:103), scaffold-bound CCR5-derived peptide 449; test: peptide microarray ELISA, 2D7 at 1 µg/ml
[4] = target: … (SEQ ID NO:104), scaffold-bound CCR5-derived peptide 1160; test: peptide microarray ELISA, 2D7 at 1 µg/ml
[5] = target: … (SEQ ID NO:105), scaffold-bound CCR5-derived peptide 450; test: peptide microarray ELISA, 2D7 at 1 µg/ml
[6] = target: … (SEQ ID NO:106), scaffold-bound CCR5-derived peptide 702; test: peptide microarray ELISA, 2D7 at 1 µg/ml
[7] = target: … (SEQ ID NO:107), scaffold-bound CCR5-derived peptide 1159; test: peptide microarray ELISA, 2D7 at 1 µg/ml
[8] = target: … (SEQ ID NO:108), scaffold-bound CCR5-derived peptide 719; test: peptide microarray ELISA, 2D7 at 1 µg/ml
… (SEQ ID NO:108), scaffold-bound CCR5-derived peptide 719, sequence (peptide, as listed by the source): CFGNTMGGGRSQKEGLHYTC

[9] = target: … (SEQ ID NO:109), scaffold-bound CCR5-derived peptide 1158; test: peptide microarray ELISA, 2D7 at 1 µg/ml
[10] = target: … (SEQ ID NO:101), scaffold-bound CCR5-derived peptide 447; test: peptide microarray ELISA, 2D7 at 10 µg/ml
[11] = target: … (SEQ ID NO:102), scaffold-bound CCR5-derived peptide 443; test: peptide microarray ELISA, 2D7 at 10 µg/ml
[12] = target: … (SEQ ID NO:103), scaffold-bound CCR5-derived peptide 449; test: peptide microarray ELISA, 2D7 at 10 µg/ml
[13] = target: … (SEQ ID NO:104), scaffold-bound CCR5-derived peptide 1160; test: peptide microarray ELISA, 2D7 at 10 µg/ml
[14] = target: … (SEQ ID NO:105), scaffold-bound CCR5-derived peptide 450; test: peptide microarray ELISA, 2D7 at 10 µg/ml
[15] = target: … (SEQ ID NO:106), scaffold-bound CCR5-derived peptide 702; test: peptide microarray ELISA, 2D7 at 10 µg/ml
[16] = target: … (SEQ ID NO:107), scaffold-bound CCR5-derived peptide 1159; test: peptide microarray ELISA, 2D7 at 10 µg/ml
[17] = target: … (SEQ ID NO:108), scaffold-bound CCR5-derived peptide 719; test: peptide microarray ELISA, 2D7 at 10 µg/ml
[18] = target: … (SEQ ID NO:109), scaffold-bound CCR5-derived peptide 1158; test: peptide microarray ELISA, 2D7 at 10 µg/ml
[19] = target: … (SEQ ID NO:101), scaffold-bound CCR5-derived peptide 447; test: peptide microarray ELISA, 2D7 at 0.1 µg/ml
[20] = target: … (SEQ ID NO:102), scaffold-bound CCR5-derived peptide 443; test: peptide microarray ELISA, 2D7 at 0.1 µg/ml
[21] = target: … (SEQ ID NO:103), scaffold-bound CCR5-derived peptide 449; test: peptide microarray ELISA, 2D7 at 0.1 µg/ml
[22] = target: … (SEQ ID NO:104), scaffold-bound CCR5-derived peptide 1160; test: peptide microarray ELISA, 2D7 at 0.1 µg/ml
[23] = target: … (SEQ ID NO:105), scaffold-bound CCR5-derived peptide 450; test: peptide microarray ELISA, 2D7 at 0.1 µg/ml
[24] = target: … (SEQ ID NO:106), scaffold-bound CCR5-derived peptide 702; test: peptide microarray ELISA, 2D7 at 0.1 µg/ml
[25] = target: … (SEQ ID NO:107), scaffold-bound CCR5-derived peptide 1159; test: peptide microarray ELISA, 2D7 at 0.1 µg/ml
[26] = target: … (SEQ ID NO:108), scaffold-bound CCR5-derived peptide 719; test: peptide microarray ELISA, 2D7 at 0.1 µg/ml
[27] = target: … (SEQ ID NO:109), scaffold-bound CCR5-derived peptide 1158; test: peptide microarray ELISA, 2D7 at 0.1 µg/ml

microarray ELISA signal (absorbance 405 nm, CCD camera) [1]: 2710
microarray ELISA signal (absorbance 405 nm, CCD camera) [2]: 2640
microarray ELISA signal (absorbance 405 nm, CCD camera) [3]: 2610
microarray ELISA signal (absorbance 405 nm, CCD camera) [4]: 2470
microarray ELISA signal (absorbance 405 nm, CCD camera) [5]: 2360
microarray ELISA signal (absorbance 405 nm, CCD camera) [6]: 1580
microarray ELISA signal (absorbance 405 nm, CCD camera) [7]: 1150
microarray ELISA signal (absorbance 405 nm, CCD camera) [8]: 678
microarray ELISA signal (absorbance 405 nm, CCD camera) [9]: 416
microarray ELISA signal (absorbance 405 nm, CCD camera) [10]: 2940
microarray ELISA signal (absorbance 405 nm, CCD camera) [11]: 3090
microarray ELISA signal (absorbance 405 nm, CCD camera) [12]: 2890
microarray ELISA signal (absorbance 405 nm, CCD camera) [13]: 2760
microarray ELISA signal (absorbance 405 nm, CCD camera) [14]: 2850
microarray ELISA signal (absorbance 405 nm, CCD camera) [15]: 2790
microarray ELISA signal (absorbance 405 nm, CCD camera) [16]: 2640
microarray ELISA signal (absorbance 405 nm, CCD camera) [17]: 2820
microarray ELISA signal (absorbance 405 nm, CCD camera) [18]: 2380
microarray ELISA signal (absorbance 405 nm, CCD camera) [19]: 261
microarray ELISA signal (absorbance 405 nm, CCD camera) [20]: 148
microarray ELISA signal (absorbance 405 nm, CCD camera) [21]: 99
microarray ELISA signal (absorbance 405 nm, CCD camera) [22]: 315
microarray ELISA signal (absorbance 405 nm, CCD camera) [23]: 107
microarray ELISA signal (absorbance 405 nm, CCD camera) [24]: 68
microarray ELISA signal (absorbance 405 nm, CCD camera) [25]: 213
microarray ELISA signal (absorbance 405 nm, CCD camera) [26]: 113
microarray ELISA signal (absorbance 405 nm, CCD camera) [27]: 132
Substance: anti-CCR5 antibody 2D7
